{
  "source": "patent US7132258B1",
  "about": "“Nucleic acid encoding vitamin D receptor related polypeptide” (University of Massachusetts, priority 1998, dated 2006)",
  "key": {"PPAR (LBD of mPPARα)": {"molecular_target": "T1, PPAR (LBD of mPPARα) (Mus musculus, UniProt P23204)", "T1 construct": "PPAR (LBD of mPPARα); expressed in transfected cells; host or cells: Saccharomyces cerevisiae Y190", "T1 sequence (P23204 239-466 limits assumed)": "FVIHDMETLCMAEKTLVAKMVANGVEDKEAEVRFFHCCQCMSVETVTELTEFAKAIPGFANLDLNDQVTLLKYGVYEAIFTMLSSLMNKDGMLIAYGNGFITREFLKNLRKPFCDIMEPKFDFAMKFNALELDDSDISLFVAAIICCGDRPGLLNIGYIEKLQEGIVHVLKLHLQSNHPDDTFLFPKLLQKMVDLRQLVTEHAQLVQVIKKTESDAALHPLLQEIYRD", "T1 sequence (Q9Y6Q9 401-1204 E704Q partner limits assumed)": "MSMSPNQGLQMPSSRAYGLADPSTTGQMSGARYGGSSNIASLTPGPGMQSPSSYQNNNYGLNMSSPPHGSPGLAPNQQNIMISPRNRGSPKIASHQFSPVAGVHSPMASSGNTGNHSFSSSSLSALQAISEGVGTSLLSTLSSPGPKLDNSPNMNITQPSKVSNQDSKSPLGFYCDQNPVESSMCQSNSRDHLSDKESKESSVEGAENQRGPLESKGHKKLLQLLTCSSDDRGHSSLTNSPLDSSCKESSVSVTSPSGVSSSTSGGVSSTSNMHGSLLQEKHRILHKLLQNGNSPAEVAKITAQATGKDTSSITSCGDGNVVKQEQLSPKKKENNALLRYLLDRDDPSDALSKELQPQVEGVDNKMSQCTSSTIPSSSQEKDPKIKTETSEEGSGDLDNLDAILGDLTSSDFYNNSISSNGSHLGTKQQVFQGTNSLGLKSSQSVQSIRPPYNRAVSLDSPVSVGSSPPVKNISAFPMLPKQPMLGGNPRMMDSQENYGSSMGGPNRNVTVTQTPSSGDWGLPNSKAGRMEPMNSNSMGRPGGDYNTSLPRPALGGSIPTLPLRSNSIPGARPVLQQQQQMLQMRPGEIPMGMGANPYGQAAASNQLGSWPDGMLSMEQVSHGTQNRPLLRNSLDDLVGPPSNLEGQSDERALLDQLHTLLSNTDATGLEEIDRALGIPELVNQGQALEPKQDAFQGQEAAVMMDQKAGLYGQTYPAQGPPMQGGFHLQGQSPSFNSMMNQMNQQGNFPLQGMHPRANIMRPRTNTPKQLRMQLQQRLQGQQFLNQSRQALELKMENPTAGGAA", "test": "Yeast two-hybrid interaction with PPAR", "type": "binding", "details": "β-galactosidase ONPG assay, 1 μM ligand or vehicle", "description": "(§1) The protein—protein interactions between RAC3 and several steroid/nuclear receptors were analyzed by the yeast two-hybrid system. The original two-hybrid clone, RAC3.1 in pGAD10 vector, was retransformed together with yeast expression vectors for Gal4 DBD fusion of selected hormone receptor genes into Y190 cells. The receptors used include RAR (full-length hRARα), RXR (full-length hRXRα), VDR (LBD of human Vitamin D receptor), PPAR (LBD of mPPARα), TR (LBD) of hTRβ), COUP (LBD of COUP-TFI). Three independent colonies from each transformation were selected and analyzed for expression of […] activities by liquid ONPG assay (FIG. 6) after treatment with 1 μM of corresponding ligands (closed bars), or with equal concentration of vehicle alone (open bars). […] The ligands used in these experiments were atRA, VitD3 (1,25-dihydroxyvitamin D3), and Wy (Wy 14,642). […] In the absence of ligand, RAC3 can interact with RAR and PPAR."}, "RXR (full-length hRXRα)": {"molecular_target": "T2, RXR (full-length hRXRα) (Homo sapiens, UniProt P19793)", "T2 construct": "RXR (full-length hRXRα); expressed in transfected cells; host or cells: Saccharomyces cerevisiae Y190", "T2 sequence (P19793 1-462)": "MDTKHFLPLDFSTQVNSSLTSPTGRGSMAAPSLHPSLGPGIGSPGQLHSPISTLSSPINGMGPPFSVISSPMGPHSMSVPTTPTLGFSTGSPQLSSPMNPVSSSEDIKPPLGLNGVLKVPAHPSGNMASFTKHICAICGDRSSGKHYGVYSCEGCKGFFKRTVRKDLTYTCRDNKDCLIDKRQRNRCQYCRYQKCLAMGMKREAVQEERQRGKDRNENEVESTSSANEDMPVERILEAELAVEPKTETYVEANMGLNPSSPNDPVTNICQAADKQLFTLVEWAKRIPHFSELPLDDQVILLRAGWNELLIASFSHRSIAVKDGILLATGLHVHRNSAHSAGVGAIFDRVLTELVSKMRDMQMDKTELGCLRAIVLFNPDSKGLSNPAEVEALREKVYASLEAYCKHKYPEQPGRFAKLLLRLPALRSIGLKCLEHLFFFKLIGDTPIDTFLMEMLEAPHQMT", "T2 sequence (Q9Y6Q9 401-1204 E704Q partner limits assumed)": "T1 sequence (Q9Y6Q9 401-1204 E704Q partner limits assumed)", "test": "Yeast two-hybrid interaction with RXR", "type": "binding", "details": "β-galactosidase ONPG assay, 1 μM ligand or vehicle", "description": "as §1"}},
  "data": [
    {"substance": "RAC3: transcriptional coactivator of steroid/nuclear receptors, protein of about 1417 amino acids (SEQ ID NO:2); RAC3.1 is the two-hybrid clone, amino acids 401–1204", "values": [
      {"measurement": "interaction with PPAR", "setting": "PPAR (LBD of mPPARα)", "result": "ligand-dependent manner"},
      {"measurement": "interaction with RXR", "setting": "RXR (full-length hRXRα)", "result": "ligand-dependent manner"}
    ]}
  ]
}
